EP1073891B1, “METHOD OF PREDICTING RECEPTOR MODULATING ACTIVITY” (Duke University, priority 1998, dated 1999)
Where “and” joins values, the source holds several entries; their conditions need not be identical. Equal values may be shown once. Values belong to the substance of their own block, whether it stands above or below them.

What was measured:
[1] = molecular target: T1, ERα (Homo sapiens, UniProt P03372); experiment: Phage ELISA / fingerprint on ER immobilized on biotinylated ERE (Examples 2.3-2.5); format: binding; design: purchased PanVera Corporation, Madison, WI; key to binding activity, ERα and buffer / binding activity, ERα and estradiol / binding activity, ERα and tamoxifen / binding of peptide, Class Specific Fingerprint on ERα: semiquantitative scale of 0 to 7+; 1+: semiquantitative scale of 0 to 7+; 2+: semiquantitative scale of 0 to 7+; 3+: semiquantitative scale of 0 to 7+; 4+: semiquantitative scale of 0 to 7+; 5+: semiquantitative scale of 0 to 7+; 6+: semiquantitative scale of 0 to 7+; semiquantitative scale of 0 to 7+; conditions: for binding activity, ERα and estradiol: ERα and estradiol (1 µM); for binding activity, ERα and tamoxifen: ERα and tamoxifen (4-OH tamoxifen, 1 µM)
T1 sequence (P03372 1-595): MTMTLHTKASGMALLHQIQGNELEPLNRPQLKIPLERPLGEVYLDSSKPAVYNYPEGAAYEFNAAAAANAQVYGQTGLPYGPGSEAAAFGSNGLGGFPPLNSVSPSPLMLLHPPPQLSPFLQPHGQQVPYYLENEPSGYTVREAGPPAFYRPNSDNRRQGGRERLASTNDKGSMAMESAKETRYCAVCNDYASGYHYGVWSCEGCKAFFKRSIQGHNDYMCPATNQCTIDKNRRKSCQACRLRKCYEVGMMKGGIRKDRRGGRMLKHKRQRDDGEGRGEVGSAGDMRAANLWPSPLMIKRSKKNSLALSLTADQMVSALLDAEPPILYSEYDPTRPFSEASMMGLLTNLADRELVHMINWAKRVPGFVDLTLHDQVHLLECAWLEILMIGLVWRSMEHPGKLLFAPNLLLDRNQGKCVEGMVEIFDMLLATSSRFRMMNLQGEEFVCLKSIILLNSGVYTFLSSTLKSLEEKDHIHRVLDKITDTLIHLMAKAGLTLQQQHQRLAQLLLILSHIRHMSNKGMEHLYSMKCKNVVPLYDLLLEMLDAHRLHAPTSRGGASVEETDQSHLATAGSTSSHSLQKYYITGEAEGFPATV

[2] = molecular target: ERβ (Homo sapiens, UniProt Q92731); experiment: as above; format: binding; design: purchased PanVera Corporation, Madison, WI; key: semiquantitative scale of 0 to 7+; 1+: semiquantitative scale of 0 to 7+; 2+: semiquantitative scale of 0 to 7+; 3+: semiquantitative scale of 0 to 7+; 4+: semiquantitative scale of 0 to 7+; 5+: semiquantitative scale of 0 to 7+; 6+: semiquantitative scale of 0 to 7+; semiquantitative scale of 0 to 7+; conditions: for binding activity, ERβ and Estradiol: ERβ and Estradiol (1 µM); for binding activity, ERβ and tamoxifen: ERβ and tamoxifen (4-OH tamoxifen, 1 µM)
[3] = 4-OH Tamoxifen present during binding
[4] = 16a-OH Estrone present during binding
[5] = Clomiphene present during binding
[6] = Estradiol present during binding
[7] = ICI 182,780 present during binding
[8] = Nafoxidine present during binding
[9] = Premarin present during binding
[10] = Progesterone present during binding
[11] = Raloxifene present during binding

Sequence of ERβ (Q92731 whole entry): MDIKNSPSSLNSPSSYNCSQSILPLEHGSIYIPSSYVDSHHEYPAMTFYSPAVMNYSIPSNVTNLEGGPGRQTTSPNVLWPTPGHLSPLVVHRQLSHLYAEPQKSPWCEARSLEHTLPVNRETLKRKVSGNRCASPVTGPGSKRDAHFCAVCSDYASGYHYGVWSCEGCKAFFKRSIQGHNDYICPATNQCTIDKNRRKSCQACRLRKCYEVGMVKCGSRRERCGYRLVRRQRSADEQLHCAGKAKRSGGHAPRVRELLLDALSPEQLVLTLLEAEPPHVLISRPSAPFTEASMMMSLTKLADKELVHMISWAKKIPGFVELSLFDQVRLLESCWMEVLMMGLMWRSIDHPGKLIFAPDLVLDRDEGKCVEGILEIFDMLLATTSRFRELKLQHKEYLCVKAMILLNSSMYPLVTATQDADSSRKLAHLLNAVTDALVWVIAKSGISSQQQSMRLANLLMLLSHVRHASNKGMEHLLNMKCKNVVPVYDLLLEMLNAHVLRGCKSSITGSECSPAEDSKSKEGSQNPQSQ

binding activity, ERα and buffer [1]: 5+
binding activity, ERα and estradiol [1]: 4+
binding activity, ERα and tamoxifen [1]: 4+
binding activity, ERβ and Estradiol [2]: 7+
binding activity, ERβ and buffer [2]: 3+
binding activity, ERβ and tamoxifen [2]: 1+
Substance: SRNLLCLLDQEACSR [Peptide 17E-β]

binding activity, ERα and buffer [1]: 5+
binding activity, ERα and estradiol [1]: 4+
binding activity, ERα and tamoxifen [1]: 4+
binding activity, ERβ and Estradiol [2]: 6+
binding activity, ERβ and buffer [2]: 7+
binding activity, ERβ and tamoxifen [2]: 7+
Substance: SSIPPRSWWLSQLSR [Peptide 19b-β]

binding activity, ERα and buffer [1]: 4+
binding activity, ERα and estradiol [1]: 3+
binding activity, ERα and tamoxifen [1]: 3+
binding activity, ERβ and Estradiol [2]: 7+
binding activity, ERβ and buffer [2]: 6+
binding activity, ERβ and tamoxifen [2]: 3+
Substance: SSTTWRCPEWYCGSR [Peptide 30E-β]

binding activity, ERα and buffer [1]: 3+
binding activity, ERα and estradiol [1]: 6+ and 3+
binding activity, ERα and tamoxifen [1]: 3+
binding activity, ERβ and Estradiol [2]: 7+ and 6+
binding activity, ERβ and buffer [2]: 7+
binding activity, ERβ and tamoxifen [2]: 3+ and 7+
Substance: HSYSSHPLLLSYLWGG [Peptide 23b-β]

binding activity, ERα and buffer [1]: 6+
binding activity, ERα and estradiol [1]: 4+
binding activity, ERα and tamoxifen [1]: 5+
binding activity, ERβ and Estradiol [2]: 7+
binding activity, ERβ and buffer [2]: 5+
binding activity, ERβ and tamoxifen [2]: 2+
Substance: SRWWLDDHELLLYSSR [Peptide 26E-β]

binding activity, ERα and buffer [1]: 4+
binding activity, ERα and estradiol [1]: 6+
binding activity, ERα and tamoxifen [1]: 3+
binding activity, ERβ and Estradiol [2]: 7+
binding activity, ERβ and buffer [2]: 6+
binding activity, ERβ and tamoxifen [2]: 2+
Substance: SSRTLYCHLTSSNPEWCSR [Peptide 27E-β]

binding activity, ERα and buffer [1]: 4+
binding activity, ERα and estradiol [1]: 3+
binding activity, ERα and tamoxifen [1]: 4+
binding activity, ERβ and Estradiol [2]: 4+
binding activity, ERβ and buffer [2]: 7+
binding activity, ERβ and tamoxifen [2]: 5+
Substance: SSWPGAEWFKEQLSR [Peptide 20b-β]

binding activity, ERα and buffer [1]: 3+
binding activity, ERα and estradiol [1]: 2+
binding activity, ERα and tamoxifen [1]: 4+
binding activity, ERβ and Estradiol [2]: 7+
binding activity, ERβ and buffer [2]: 7+
binding activity, ERβ and tamoxifen [2]: 7+
Substance: SRNECIGPWCLTISR [Peptide 13t-β]

binding activity, ERα and buffer [1]: 2+
binding activity, ERα and estradiol [1]: 2+
binding activity, ERα and tamoxifen [1]: 7+
binding activity, ERβ and Estradiol [2]: 2+
binding activity, ERβ and buffer [2]: 3+
binding activity, ERβ and tamoxifen [2]: 7+
Substance: SSPGSREWFKDMLSR [Peptide 14t-β]

binding activity, ERα and buffer [1]: 2+
binding activity, ERα and estradiol [1]: 2+
binding activity, ERα and tamoxifen [1]: 3+
binding activity, ERβ and Estradiol [2]: 7+
binding activity, ERβ and buffer [2]: 7+
binding activity, ERβ and tamoxifen [2]: 7+
Substance: SSQVWPGPWRLVESR [Peptide 14b-β]

binding activity, ERα and buffer [1]: 3+
binding activity, ERα and estradiol [1]: 3+
binding activity, ERα and tamoxifen [1]: 6+
binding activity, ERβ and Estradiol [2]: 3+
binding activity, ERβ and buffer [2]: 3+
binding activity, ERβ and tamoxifen [2]: 7+
Substance: SSRLVPHSFWLDGLMHGSR [Peptide 21t-β]

The remaining lines, values behind:

Substance: SSGPFYVGGMLWPADCLSR [Peptide 10t-β]
binding activity, ERα and buffer [1]: 4+
binding activity, ERα and estradiol [1]: 3+
binding activity, ERα and tamoxifen [1]: 6+
binding activity, ERβ and Estradiol [2]: 2+
binding activity, ERβ and buffer [2]: 4+
binding activity, ERβ and tamoxifen [2]: 7+

Substance: SRPYCLGDVWCLDSR [Peptide 2t-β]
binding activity, ERα and buffer [1]: 2+
binding activity, ERα and estradiol [1]: 2+
binding activity, ERα and tamoxifen [1]: 3+
binding activity, ERβ and Estradiol [2]: 6+
binding activity, ERβ and buffer [2]: 7+
binding activity, ERβ and tamoxifen [2]: 7+

Substance: SRLHCLLDSSYCSSR [Peptide 1b-β]
binding activity, ERα and buffer [1]: 4+
binding activity, ERα and estradiol [1]: 7+
binding activity, ERα and tamoxifen [1]: 3+
binding activity, ERβ and Estradiol [2]: 7+
binding activity, ERβ and buffer [2]: 7+
binding activity, ERβ and tamoxifen [2]: 2+

Substance: SSIKDFPNLISLLSR [Peptide 12E-β]
binding activity, ERα and buffer [1]: 2+
binding activity, ERα and estradiol [1]: 2+
binding activity, ERα and tamoxifen [1]: 2+
binding activity, ERβ and Estradiol [2]: 7+
binding activity, ERβ and buffer [2]: 4+
binding activity, ERβ and tamoxifen [2]: 1+

Substance: SSTTMFDFFYERLSR [Peptide 6t-β]
binding activity, ERα and buffer [1]: 4+
binding activity, ERα and estradiol [1]: 4+
binding activity, ERα and tamoxifen [1]: 6+
binding activity, ERβ and Estradiol [2]: 4+
binding activity, ERβ and buffer [2]: 7+
binding activity, ERβ and tamoxifen [2]: 7+

Substance: SSWNSREFFLSQLSR [Peptide 5t-β]
binding activity, ERα and buffer [1]: 3+
binding activity, ERα and estradiol [1]: 2+
binding activity, ERα and tamoxifen [1]: 5+
binding activity, ERβ and Estradiol [2]: 2+
binding activity, ERβ and buffer [2]: 2+
binding activity, ERβ and tamoxifen [2]: 7+

Substance: SSLDLSQFPMTASFLRESR [Peptide 35E-β]
binding activity, ERα and buffer [1]: 2+
binding activity, ERα and estradiol [1]: 2+
binding activity, ERα and tamoxifen [1]: 2+
binding activity, ERβ and Estradiol [2]: 6+
binding activity, ERβ and buffer [2]: 2+
binding activity, ERβ and tamoxifen [2]: 1+

Substance: SRLPPSVFSMCGSEVCLSR [Peptide 9t-β]
binding activity, ERα and buffer [1]: 3+
binding activity, ERα and estradiol [1]: 3+
binding activity, ERα and tamoxifen [1]: 6+
binding activity, ERβ and Estradiol [2]: 2+
binding activity, ERβ and buffer [2]: 3+
binding activity, ERβ and tamoxifen [2]: 7+

Substance: SSGPWLMHYLGGGSR [Peptide 7b-β]
binding activity, ERα and buffer [1]: 2+
binding activity, ERα and estradiol [1]: 4+
binding activity, ERα and tamoxifen [1]: 3+
binding activity, ERβ and Estradiol [2]: 7+
binding activity, ERβ and buffer [2]: 7+
binding activity, ERβ and tamoxifen [2]: 2+

Substance: SREGWMGPWRLADSR [Peptide 12t-β]
binding activity, ERα and estradiol [1]: 1+
binding activity, ERα and tamoxifen [1]: 1+
binding activity, ERβ and Estradiol [2]: 7+
binding activity, ERβ and buffer [2]: 7+
binding activity, ERβ and tamoxifen [2]: 7+

Substance: SREWEDGFGGRWLSR [Peptide 4t-β]
binding activity, ERα and buffer [1]: 2+
binding activity, ERα and estradiol [1]: 2+
binding activity, ERα and tamoxifen [1]: 3+
binding activity, ERβ and Estradiol [2]: 7+
binding activity, ERβ and buffer [2]: 7+
binding activity, ERβ and tamoxifen [2]: 7+

Substance: SSTSWLHHYLMGTSR [Peptide 8b-β]
binding activity, ERα and buffer [1]: 1+
binding activity, ERα and estradiol [1]: 4+
binding activity, ERα and tamoxifen [1]: 2+
binding activity, ERβ and Estradiol [2]: 7+
binding activity, ERβ and buffer [2]: 7+
binding activity, ERβ and tamoxifen [2]: 1+

Substance: SSSMMREFFERELSR [Peptide 5b-β]
binding activity, ERα and buffer [1]: 6+
binding activity, ERα and estradiol [1]: 6+
binding activity, ERα and tamoxifen [1]: 7+
binding activity, ERβ and Estradiol [2]: 6+
binding activity, ERβ and buffer [2]: 7+
binding activity, ERβ and tamoxifen [2]: 7+

Substance: SSRTPILFSLLETSR [Peptide 11E-β]
binding activity, ERα and buffer [1]: 6+
binding activity, ERα and estradiol [1]: 5+
binding activity, ERα and tamoxifen [1]: 6+
binding activity, ERβ and Estradiol [2]: 6+
binding activity, ERβ and buffer [2]: 5+
binding activity, ERβ and tamoxifen [2]: 4+

Substance: S A A P R T I S H Y L M G G (SAAPRTISHYLMGG) [#48 ER]
binding of peptide, Class Specific Fingerprint on ERα [1, 3]: 1+
binding of peptide, Class Specific Fingerprint on ERα [1, 4]: 2+
binding of peptide, Class Specific Fingerprint on ERα [1, 5]: 1+
binding of peptide, Class Specific Fingerprint on ERα ([1]; DES present during binding): 2+
binding of peptide, Class Specific Fingerprint on ERα [1, 6]: 2+
binding of peptide, Class Specific Fingerprint on ERα ([1]; Estriol present during binding): 4+
binding of peptide, Class Specific Fingerprint on ERα [1, 7]: 1+
binding of peptide, Class Specific Fingerprint on ERα [1, 8]: 1+
binding of peptide, Class Specific Fingerprint on ERα [1, 9]: 2+
binding of peptide, Class Specific Fingerprint on ERα [1, 10]: 6+
binding of peptide, Class Specific Fingerprint on ERα [1, 11]: 1+
binding of peptide, Class Specific Fingerprint on ERα ([1]; buffer present during binding): 7+
binding of peptide, Class Specific Fingerprint on ERβ [2, 3]: 1+
binding of peptide, Class Specific Fingerprint on ERβ [2, 4]: 3+
binding of peptide, Class Specific Fingerprint on ERβ [2, 5]: 1+
binding of peptide, Class Specific Fingerprint on ERβ ([2]; DES present during binding): 3+
binding of peptide, Class Specific Fingerprint on ERβ [2, 6]: 2+
binding of peptide, Class Specific Fingerprint on ERβ ([2]; Estriol present during binding): 6+
binding of peptide, Class Specific Fingerprint on ERβ [2, 7]: 2+
binding of peptide, Class Specific Fingerprint on ERβ [2, 8]: 4+
binding of peptide, Class Specific Fingerprint on ERβ [2, 9]: 4+
binding of peptide, Class Specific Fingerprint on ERβ [2, 10]: 6+
binding of peptide, Class Specific Fingerprint on ERβ [2, 11]: 4+
binding of peptide, Class Specific Fingerprint on ERβ ([2]; buffer present during binding): 7+
